US20220162265A1 (University of Washington, published 2022)

Biological target: the molecule itself
Test: self-assembly into 2D arrays, negative-stain EM and AFM
Procedure: Samples were applied to glow-discharged EM grids and stained with either uranyl acetate (UA), uranyl formate (UF) or NanoW™ (Nanoprobes, Inc, Yaphank, N.Y., USA) for screening or analysis. Data was collected using a Tecnai T12 equipped with a Gatan Orius CCD. CTF estimation was performed using GCTF (10), and all other image processing steps were completed via Relion™ 2.1 (11). For the analysis in FIG. 2G, 421 2D array segments were picked manually from 42 micrographs, and the resulting 2D class average used as a template for Relion™ autopicking, which yielded 5,823 2D array segments. After subsequent 2D classification and alignment, the dominant 2D class consisted of 1,893 array segments (each approximately 20 nm diameter).

B1: 2D-HP (designed binder)
chain: MGSRTMYIRALEQSLREQEELAKRLKELLRELERLQREGSSDRDVKVLLWEIEALVEEIEKLARLQKELVEKLKRQGSGNMYIRALEQSLREQEELAKRLKELLRELERLQREGSSDRDVKVLLWEIEALVEEIEKLARLQKELVEKLKRQD
notes: Expressed from pET28b(+) between NdeI and XhoI; also called design 2D-HP; designed 2D assembly 2D-HP
Does B1 bind?
Result: binds
